Laboratory results taken from patent US20250011363A1, “OPTIMIZED SHORTENED PEPTIDE THAT BINDS TO ACETYLCHOLINE RECEPTOR, AND USE THEREOF” (SKINMED CO., LTD., priority 2021, published 2025).

Target: acetylcholine receptor
Assay: SPR, peptide at 10 uM

Row | Binder | Binding affinity [RU]
1 | RHSFKK [6mer-2-1161] | 27
2 | KMSERR [6mer-2-1162] | 34
3 | KCHFKK [6mer-2-1163] | 37
4 | RYNHKR [6mer-2-1164] | 33
5 | RIKAKK [6mer-2-1165] | 30
6 | KCSIKK [6mer-2-1166] | 26
7 | RCAPKR [6mer-2-1167] | 27
8 | KMKPKK [6mer-2-1168] | 41
9 | KICERK [6mer-2-1169] | 21
10 | KFTIRR [6mer-2-1170] | 25
11 | KMPARR [6mer-2-1171] | 40
12 | KNCERR [6mer-2-1172] | 36
13 | KCCNKK [6mer-2-1173] | 38
14 | RCEPRK [6mer-2-1174] | 21
15 | RYSKRR [6mer-2-1175] | 34
16 | RYTEKK [6mer-2-1176] | 43
17 | RASEKR [6mer-2-1177] | 41
18 | KTTVRK [6mer-2-1178] | 30
19 | KACVKK [6mer-2-1179] | 34

Row | Binder | Binding affinity [RU]
20 | RAANRR [6mer-2-1180] | 34
21 | KACWKR [6mer-2-1181] | 32
22 | RHNDKR [6mer-2-1182] | 30
23 | RENNRK [6mer-2-1183] | 35
24 | KFWVRR [6mer-2-1184] | 22
25 | RIDAKK [6mer-2-1185] | 42
26 | KEKFRR [6mer-2-1186] | 27
27 | RTADRK [6mer-2-1187] | 36
28 | RAPARR [6mer-2-1188] | 22
29 | KTAPKK [6mer-2-1189] | 40
30 | KACIRR [6mer-2-1190] | 32
31 | KKADRK [6mer-2-1191] | 35
32 | KHKNKR [6mer-2-1192] | 40
33 | REKIRR [6mer-2-1193] | 43
34 | KYCDRK [6mer-2-1194] | 35
35 | KMTERK [6mer-2-1195] | 25
36 | RESKKR [6mer-2-1196] | 39
37 | KNCIKK [6mer-2-1197] | 23
38 | RMSHRR [6mer-2-1198] | 27

Target: acetylcholine receptor
Assay: SPR, peptide at 10 uM on acetylcholine receptor

Row | Binder | Binding affinity (RU)
39 | RYSFK [5mer-649] | 20
40 | KMKMK [5mer-949] | 26
41 | RPEDK [5mer-650] | 22
42 | KDADR [5mer-950] | 22
43 | RFTVR [5mer-651] | 11
44 | RYMGR [5mer-951] | 18
45 | RCAAR [5mer-652] | 23
46 | KTMHK [5mer-952] | 12
47 | KTTWK [5mer-653] | 16
48 | RKMAR [5mer-953] | 23
49 | KEWNR [5mer-654] | 27
50 | KTEVK [5mer-954] | 23
51 | RKCIR [5mer-655] | 15
52 | KNADK [5mer-955] | 14
53 | KATGR [5mer-656] | 13
54 | KPTWK [5mer-956] | 19
55 | KDNDR [5mer-657] | 22
56 | RDCER [5mer-957] | 30
57 | KKWGR [5mer-658] | 31
58 | RKWKR [5mer-958] | 11
59 | KIHEK [5mer-659] | 22

Row | Binder | Binding affinity (RU)
60 | KPNMK [5mer-959] | 29
61 | KFDVK [5mer-660] | 11
62 | RNPGK [5mer-960] | 14
63 | RCNMK [5mer-661] | 30
64 | KIANR [5mer-961] | 32
65 | KIEEK [5mer-662] | 28
66 | RIWKR [5mer-962] | 23
67 | RATPR [5mer-663] | 31
68 | RAPNK [5mer-963] | 24
69 | KPTWR [5mer-664] | 17
70 | KYTDR [5mer-964] | 22
71 | KTWEK [5mer-665] | 26
72 | KMEIR [5mer-965] | 30
73 | RHDWR [5mer-666] | 18
74 | RPSAK [5mer-966] | 32
75 | RDCHR [5mer-667] | 16
76 | KKTHK [5mer-967] | 26
77 | RPHAK [5mer-668] | 27
78 | RIPHR [5mer-968] | 11
79 | RNPER [5mer-669] | 24
